Experimental data from PMC2115384 (The Journal of Cell Biology, 1989).

B1: purified human erythrocyte ankyrin (natural protein, UniProt P16157 1-1881, looked up)
chain: MPYSVGFREADAATSFLRAARSGNLDKALDHLRNGVDINTCNQNGLNGLHLASKEGHVKMVVELLHKEIILETTTKKGNTALHIAALAGQDEVVRELVNYGANVNAQSQKGFTPLYMAAQENHLEVVKFLLENGANQNVATEDGFTPLAVALQQGHENVVAHLINYGTKGKVRLPALHIAARNDDTRTAAVLLQNDPNPDVLSKTGFTPLHIAAHYENLNVAQLLLNRGASVNFTPQNGITPLHIASRRGNVIMVRLLLDRGAQIETKTKDELTPLHCAARNGHVRISEILLDHGAPIQAKTKNGLSPIHMAAQGDHLDCVRLLLQYDAEIDDITLDHLTPLHVAAHCGHHRVAKVLLDKGAKPNSRALNGFTPLHIACKKNHVRVMELLLKTGASIDAVTESGLTPLHVASFMGHLPIVKNLLQRGASPNVSNVKVETPLHMAARAGHTEVAKYLLQNKAKVNAKAKDDQTPLHCAARIGHTNMVKLLLENNANPNLATTAGHTPLHIAAREGHVETVLALLEKEASQACMTKKGFTPLHVAAKYGKVRVAELLLERDAHPNAAGKNGLTPLHVAVHHNNLDIVKLLLPRGGSPHSPAWNGYTPLHIAAKQNQVEVARSLLQYGGSANAESVQGVTPLHLAAQEGHAEMVALLLSKQANGNLGNKSGLTPLHLVAQEGHVPVADVLIKHGVMVDATTRMGYTPLHVASHYGNIKLVKFLLQHQADVNAKTKLGYSPLHQAAQQGHTDIVTLLLKNGASPNEVSSDGTTPLAIAKRLGYISVTDVLKVVTDETSFVLVSDKHRMSFPETVDEILDVSEDEGEELISFKAERRDSRDVDEEKELLDFVPKLDQVVESPAIPRIPCAMPETVVIRSEEQEQASKEYDEDSLIPSSPATETSDNISPVASPVHTGFLVSFMVDARGGSMRGSRHNGLRVVIPPRTCAAPTRITCRLVKPQKLSTPPPLAEEEGLASRIIALGPTGAQFLSPVIVEIPHFASHGRGDRELVVLRSENGSVWKEHRSRYGESYLDQILNGMDEELGSLEELEKKRVCRIITTDFPLYFVIMSRLCQDYDTIGPEGGSLKSKLVPLVQATFPENAVTKRVKLALQAQPVPDELVTKLLGNQATFSPIVTVEPRRRKFHRPIGLRIPLPPSWTDNPRDSGEGDTTSLRLLCSVIGGTDQAQWEDITGTTKLVYANECANFTTNVSARFWLSDCPRTAEAVNFATLLYKELTAVPYMAKFVIFAKMNDPREGRLRCYCMTDDKVDKTLEQHENFVEVARSRDIEVLEGMSLFAELSGNLVPVKKAAQQRSFHFQSFRENRLAMPVKVRDSSREPGGSLSFLRKAMKYEDTQHILCHLNITMPPCAKGSGAEDRRRTPTPLALRYSILSESTPGSLSGTEQAEMKMAVISEHLGLSWAELARELQFSVEDINRIRVENPNSLLEQSVALLNLWVIREGQNANMENLYTALQSIDRGEIVNMLEGSGRQSRNLKPDRRHTDRDYSLSPSQMNGYSSLQDELLSPASLGCALSSPLRADQYWNEVAVLDAIPLAATEHDTMLEMSDMQVWSAGLTPSLVTAEDSSLECSKAEDSDATGHEWKLEGALSEEPRGPELGSLELVEDDTVDSDATNGLIDLLEQEEGQRSEEKLPGSKRQDDATGAGQDSENEVSLVSGHQRGQARITHSPTVSQVTERSQDRLQDWDADGSIVSYLQDAAQGSWQEEVTQGPHSFQGTSTMTEGLEPGGSQEYEKVLVSVSEHTWTEQPEAESSQADRDRRQQGQEEQVQEAKNTFTQVVQGNEFQNIPGEQVTEEQFTDEQGNIVTKKIIRKVVRQIDLSSADAAQEHEEVTVEGPLEDPSELEVDIDYFMKHSKDHTSTPNP

Columns and labels:
Experiment in all cases: native gel or EMSA
[1] = target: fodrin solubilized from MDCK cells (alpha- and beta-subunits) (dog (endogenous in MDCK))
[2] = target: ankyrin solubilized from MDCK cells (dog (endogenous in MDCK))
[3] = target: purified human erythrocyte spectrin heterotetramers (human, UniProt P02549 1-2419; P11277 1-2137)
purified human erythrocyte spectrin heterotetramers, sequence (P02549 whole entry, chain 1 of 2): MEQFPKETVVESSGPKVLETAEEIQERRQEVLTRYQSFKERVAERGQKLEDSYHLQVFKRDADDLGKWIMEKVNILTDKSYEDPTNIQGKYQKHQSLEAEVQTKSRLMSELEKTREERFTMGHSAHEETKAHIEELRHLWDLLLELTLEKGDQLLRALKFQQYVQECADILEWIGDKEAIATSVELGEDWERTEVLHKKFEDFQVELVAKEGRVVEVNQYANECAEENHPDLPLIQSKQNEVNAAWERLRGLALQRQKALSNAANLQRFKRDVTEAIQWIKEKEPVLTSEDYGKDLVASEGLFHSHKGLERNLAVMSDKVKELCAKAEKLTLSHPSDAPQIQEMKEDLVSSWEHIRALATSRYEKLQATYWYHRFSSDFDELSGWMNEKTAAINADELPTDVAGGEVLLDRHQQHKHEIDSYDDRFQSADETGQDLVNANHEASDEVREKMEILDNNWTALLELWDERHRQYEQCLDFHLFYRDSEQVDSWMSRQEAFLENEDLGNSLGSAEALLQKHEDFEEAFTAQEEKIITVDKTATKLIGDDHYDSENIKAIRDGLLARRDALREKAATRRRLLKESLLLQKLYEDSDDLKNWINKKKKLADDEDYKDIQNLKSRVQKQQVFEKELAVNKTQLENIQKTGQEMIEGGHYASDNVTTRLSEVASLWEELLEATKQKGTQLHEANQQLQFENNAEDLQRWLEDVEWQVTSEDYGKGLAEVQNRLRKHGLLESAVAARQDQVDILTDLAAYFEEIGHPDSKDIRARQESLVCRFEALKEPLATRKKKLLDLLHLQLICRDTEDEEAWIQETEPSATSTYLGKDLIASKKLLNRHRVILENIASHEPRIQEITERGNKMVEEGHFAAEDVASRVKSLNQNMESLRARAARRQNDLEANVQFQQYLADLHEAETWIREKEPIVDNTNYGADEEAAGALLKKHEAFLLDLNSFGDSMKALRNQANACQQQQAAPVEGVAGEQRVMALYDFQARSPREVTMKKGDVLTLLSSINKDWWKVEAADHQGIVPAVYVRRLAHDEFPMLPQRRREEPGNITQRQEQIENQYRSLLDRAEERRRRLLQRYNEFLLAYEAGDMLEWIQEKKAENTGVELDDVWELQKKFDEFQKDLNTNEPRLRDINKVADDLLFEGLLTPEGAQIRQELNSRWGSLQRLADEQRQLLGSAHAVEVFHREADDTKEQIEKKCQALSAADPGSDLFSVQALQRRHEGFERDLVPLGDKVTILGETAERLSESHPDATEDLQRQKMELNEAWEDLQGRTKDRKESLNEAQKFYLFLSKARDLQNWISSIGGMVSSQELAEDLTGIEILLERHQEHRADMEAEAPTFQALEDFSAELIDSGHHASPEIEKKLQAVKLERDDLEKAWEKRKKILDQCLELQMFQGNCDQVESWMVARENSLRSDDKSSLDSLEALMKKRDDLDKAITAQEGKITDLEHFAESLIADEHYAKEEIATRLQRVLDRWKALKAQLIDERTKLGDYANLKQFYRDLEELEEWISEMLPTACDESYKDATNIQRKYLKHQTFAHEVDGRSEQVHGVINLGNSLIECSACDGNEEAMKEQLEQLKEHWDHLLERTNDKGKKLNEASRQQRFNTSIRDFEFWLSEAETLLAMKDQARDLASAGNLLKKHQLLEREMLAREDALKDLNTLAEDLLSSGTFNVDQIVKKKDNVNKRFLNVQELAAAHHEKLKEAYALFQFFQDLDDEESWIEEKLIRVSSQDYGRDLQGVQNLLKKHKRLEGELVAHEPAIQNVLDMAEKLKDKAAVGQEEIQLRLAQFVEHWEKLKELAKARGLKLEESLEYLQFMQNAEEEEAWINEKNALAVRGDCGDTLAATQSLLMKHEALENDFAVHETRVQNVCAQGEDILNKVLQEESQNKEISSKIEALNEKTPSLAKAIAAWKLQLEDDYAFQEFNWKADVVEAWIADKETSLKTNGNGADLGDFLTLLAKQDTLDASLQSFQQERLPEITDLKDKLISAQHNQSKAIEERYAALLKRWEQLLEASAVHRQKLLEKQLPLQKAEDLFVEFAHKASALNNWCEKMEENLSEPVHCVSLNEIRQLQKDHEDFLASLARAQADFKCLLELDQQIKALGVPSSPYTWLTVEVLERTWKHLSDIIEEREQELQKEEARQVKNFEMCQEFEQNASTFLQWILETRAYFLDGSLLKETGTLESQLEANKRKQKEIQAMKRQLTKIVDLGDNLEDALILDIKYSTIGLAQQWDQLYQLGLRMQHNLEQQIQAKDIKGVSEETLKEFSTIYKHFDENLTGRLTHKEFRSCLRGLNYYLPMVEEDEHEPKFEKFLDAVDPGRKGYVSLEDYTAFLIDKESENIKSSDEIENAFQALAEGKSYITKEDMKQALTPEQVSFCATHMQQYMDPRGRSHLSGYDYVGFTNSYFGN
purified human erythrocyte spectrin heterotetramers, sequence (P11277 whole entry, chain 2 of 2): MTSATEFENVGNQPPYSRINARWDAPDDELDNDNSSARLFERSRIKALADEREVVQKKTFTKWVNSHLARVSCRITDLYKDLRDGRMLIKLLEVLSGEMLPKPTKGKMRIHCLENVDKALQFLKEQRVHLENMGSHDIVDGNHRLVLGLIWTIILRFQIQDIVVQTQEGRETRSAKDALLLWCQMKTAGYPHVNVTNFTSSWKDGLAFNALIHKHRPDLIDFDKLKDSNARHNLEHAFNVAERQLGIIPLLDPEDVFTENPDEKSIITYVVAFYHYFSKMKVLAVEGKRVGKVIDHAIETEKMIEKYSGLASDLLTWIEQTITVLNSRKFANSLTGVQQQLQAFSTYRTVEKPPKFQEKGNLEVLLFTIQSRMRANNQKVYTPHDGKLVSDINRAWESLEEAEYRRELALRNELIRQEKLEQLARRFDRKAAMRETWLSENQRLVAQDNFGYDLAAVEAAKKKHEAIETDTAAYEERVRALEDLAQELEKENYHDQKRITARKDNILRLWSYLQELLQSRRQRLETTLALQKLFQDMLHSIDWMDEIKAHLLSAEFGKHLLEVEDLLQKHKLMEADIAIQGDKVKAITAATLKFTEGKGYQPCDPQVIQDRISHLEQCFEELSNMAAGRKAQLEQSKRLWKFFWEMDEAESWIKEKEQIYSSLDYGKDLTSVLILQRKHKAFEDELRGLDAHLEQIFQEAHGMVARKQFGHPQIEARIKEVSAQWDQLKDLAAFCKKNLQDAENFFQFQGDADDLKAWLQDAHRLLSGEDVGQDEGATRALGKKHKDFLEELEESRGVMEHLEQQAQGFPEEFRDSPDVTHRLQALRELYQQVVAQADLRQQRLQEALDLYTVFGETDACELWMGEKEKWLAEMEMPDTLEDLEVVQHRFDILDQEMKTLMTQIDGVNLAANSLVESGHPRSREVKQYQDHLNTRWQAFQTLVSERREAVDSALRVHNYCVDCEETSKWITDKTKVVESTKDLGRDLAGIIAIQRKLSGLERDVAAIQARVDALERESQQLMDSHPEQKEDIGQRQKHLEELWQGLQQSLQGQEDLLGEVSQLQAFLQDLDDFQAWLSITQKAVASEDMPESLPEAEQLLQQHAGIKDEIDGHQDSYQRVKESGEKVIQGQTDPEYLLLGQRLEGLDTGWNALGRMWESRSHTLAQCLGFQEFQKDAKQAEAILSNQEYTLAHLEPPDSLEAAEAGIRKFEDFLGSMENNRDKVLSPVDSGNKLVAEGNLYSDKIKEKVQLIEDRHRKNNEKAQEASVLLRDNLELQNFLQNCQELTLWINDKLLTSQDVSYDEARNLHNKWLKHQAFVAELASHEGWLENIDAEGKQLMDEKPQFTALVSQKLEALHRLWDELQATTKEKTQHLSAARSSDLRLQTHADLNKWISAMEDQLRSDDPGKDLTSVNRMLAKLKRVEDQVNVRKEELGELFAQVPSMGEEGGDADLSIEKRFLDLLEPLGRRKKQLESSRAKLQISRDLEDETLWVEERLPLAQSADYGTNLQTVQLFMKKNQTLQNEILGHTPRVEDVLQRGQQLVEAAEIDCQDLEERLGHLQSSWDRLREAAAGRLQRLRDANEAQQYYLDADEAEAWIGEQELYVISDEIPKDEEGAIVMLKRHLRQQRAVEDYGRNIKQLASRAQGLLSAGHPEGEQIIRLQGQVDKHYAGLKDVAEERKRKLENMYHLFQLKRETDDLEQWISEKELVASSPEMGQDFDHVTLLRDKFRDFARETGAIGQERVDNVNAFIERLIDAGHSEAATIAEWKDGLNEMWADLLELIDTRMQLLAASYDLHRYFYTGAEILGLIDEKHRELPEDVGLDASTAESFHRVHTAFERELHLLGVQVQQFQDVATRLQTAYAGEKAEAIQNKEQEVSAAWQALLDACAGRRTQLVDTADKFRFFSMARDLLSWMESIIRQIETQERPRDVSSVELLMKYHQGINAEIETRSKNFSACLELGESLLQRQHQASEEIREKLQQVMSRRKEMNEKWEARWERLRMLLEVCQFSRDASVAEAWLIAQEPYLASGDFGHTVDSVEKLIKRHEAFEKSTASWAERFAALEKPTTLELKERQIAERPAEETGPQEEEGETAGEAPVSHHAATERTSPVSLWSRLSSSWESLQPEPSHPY

Molecule | percent of solubilized Na+,K+-ATPase comigrating with ankyrin and fodrin [1] [%] | percent of solubilized Na+,K+-ATPase comigrating with ankyrin and fodrin [2] [%] | binding result [3]
Na+,K+-ATPase solubilized from MDCK cells (alpha- and beta-subunits) (from UniProt P50997 1-1021; P06583 1-303) (complex) | > 80 | > 80 | –
B1 | – | – | binds
